The values that follow come from patent publication US20200115452A1 (Dana-Farber, published 2020).

Where no end group is shown, it is not given here.

Assay [1] addresses T1, PD-1 pITIM peptide KEDPSAVPVFSVD(pY)GELDFQWRE (phosphotyrosine (pY) at peptide residue 14 (PD-1 ITIM tyrosine)).
T1 construct: Coated on ELISA plates at 1 µg/ml; also called negative control pITIM peptide
T1 peptide: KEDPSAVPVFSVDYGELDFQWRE
Nature of the assay: peptide ELISA with antibody supernatants. A general note: ELISA stands for enzyme-linked immunosorbent assay.

Another assay addresses T2, BSA (UniProt P02769 25-607).
T2 construct: Carrier control in the hybridoma ELISA screen; also called carrier
Nature of the assay: ELISA, hybridoma screen.

Assay [2] has as its target T3, unphosphorylated peptide (unphosphorylated form of the PD-1 p248Tyr peptide) (human, not fully specified).
T3 peptide: VPEQTEYATIVF
The assay is described as follows: ELISA, hybridoma screen.
Excerpt: (§1) Hybridoma wells were screened by western blot on pervanadate treated Jurkat-hPD-1 lysates and by ELISA on PD-1 p248Tyr peptide conjugated to BSA and lack of reactivity to unphosphorylated peptide or BSA.

T2 sequence (P02769 25-607 limits assumed): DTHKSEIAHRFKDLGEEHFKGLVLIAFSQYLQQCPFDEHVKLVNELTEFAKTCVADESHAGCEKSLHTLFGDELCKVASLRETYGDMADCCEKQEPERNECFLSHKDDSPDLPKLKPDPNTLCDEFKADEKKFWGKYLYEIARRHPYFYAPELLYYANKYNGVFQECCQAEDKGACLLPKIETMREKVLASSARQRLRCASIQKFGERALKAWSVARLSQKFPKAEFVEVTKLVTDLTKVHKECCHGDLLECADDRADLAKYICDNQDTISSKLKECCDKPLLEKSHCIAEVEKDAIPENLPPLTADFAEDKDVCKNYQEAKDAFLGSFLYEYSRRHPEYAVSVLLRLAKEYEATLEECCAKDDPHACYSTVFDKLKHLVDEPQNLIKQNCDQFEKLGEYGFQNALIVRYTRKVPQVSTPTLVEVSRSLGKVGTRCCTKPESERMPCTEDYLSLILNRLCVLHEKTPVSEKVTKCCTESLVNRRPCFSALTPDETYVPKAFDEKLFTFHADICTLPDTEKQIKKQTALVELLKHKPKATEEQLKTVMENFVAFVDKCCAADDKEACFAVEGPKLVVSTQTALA
Excerpt for BSA: as §1

B1: rabbit mAb 6H2/6K2 (antibody, V domains shown)
VH: CQSVEESGGRLVTPGTPLTLTCTVSGIDLNYYAMGWVRQAPGKGLEYIGWIKSSGSAYYARWVNGRFTISKTSSTTVDLKMTSPTTEDTATYFCARDGHNIIEYYDLWGQGTLVTVSS
VL: AIKMTQTPSSAEAAVGGTITINCQASQSISSSLAWYQQKPGQPPKLLIYKASTLASGVPSRFSGSRSGTQFTLTISGVQCDDAATYYCQQGWSGDNVDNIFGGGTEVVVK
notes: Rabbit monoclonal tested as culture supernatant
Regarding B1, the binding result in assay [1] was “no binding”.

B2: rabbit mAb 2H2/2K4 (antibody, V domains shown)
VH: QSLEESGGDLVKPGASLTLTCKASGFSFSGSYHMCWVRQAPGKGLEWIAHIYVGSSGGTYYASWAKGRFAISKTSSTTVTLQMTSLTAADTATYFCARRDTGGTSAYALWGQGTLVTVSS
VL: DVVMTQTPSSASEPVGGTVTIKCQASQSVSSRLAWYQQKPGQPPKLLIYKASTLASGVPSRFKGSGYGTEFTLTISDLECADAATYYCQCTYIDSTYGNNFGGGTEVVVK
notes: Rabbit monoclonal tested as culture supernatant, detected with anti-rabbit IgG Fc
Regarding B2, in assay [1], the binding result was “no binding”.

B3: anti-phosphorylated PD-1 monoclonal antibody 407.6G12 (antibody, mouse IgG2a, V domains shown)
VH: EVQLVESGGGLVQPKGSLKLSCAASGFTFNTYAMNWVRQAPGKGLEWVARIRSKSDNYATYYADSVKDRFTISRDDSQSMLYLQMNNLKTEDTAMYYCMRGITTVNVWGAGTTVTVSS
VL: DIVMTQSQKFMSTSVGDRVSVTCKASQNVGTNVAWYQQKPGQSPKALIYSASYRYSGVPDRFTGSGSGTDFTLTISNVHSEDLAEYFCQQYNFYPLTFGAGTKLELK
notes: Mouse IgG2a, kappa; A BV421-conjugated version was used for flow cytometry; also called clone 407.6G12; 307.6G12
B3: the binding result (with BSA; in assay [2]) was “no binding” in each case.
